Measurements reported in PMC3129624.

Substrate: NC(=O)N[C@H]1NC(=O)NC1=O
Assay: purified protein
Assay type: biochemical, Klebsiella pneumoniae
Conditions: 10 mM NaCl, 10 mM HEPES, pH 7.5, 25 °C, no cofactor or metal

B1: KpHpxA (K. pneumoniae allantoin racemase) (Klebsiella pneumoniae subsp. pneumoniae MGH 78578) (protein)
chain: MSSVRIQVINPNTSLAMTETIGAAARAVAAPGTEILAVCPRAGVPSIEGHFDEAIAAVGVLEQIRAGREQGVDGHVIACFGDPGLLAARELAQGPVIGIAEAAMHMATMVATRFSIVTTLPRTLIIARHLLHQYGFHQHCAALHAIDLPVLALEDGSGLAQEKVRERCIRALKEDGSGAIVLGCGGMATLAQELTRELRVPVIDGVSAAVKMVESLVALGLATSKHGDLAFPEKKALSGQFQSLNPF
  kcat: 183 ± 17 s⁻¹
